This is an account of results in patent publication US5911991A, “Malarial binding site in duffy blood group protein” (New York Blood Center, Inc., priority 1996, dated 1999).

Where “and” joins values, the source holds several entries; their conditions need not be identical. Equal values may be shown once. Read-outs that look alike come from different tables or passages of the source. Ends that are not written are not given here. Bounds are passed on as bounds.

Test [1] has as its system Region II of the P. knowlesi Duffy-binding ligand (α). As to the kind of experiment: MGSA inhibition of rhesus erythrocyte binding, P. knowlesi α Region II. The test is classed as cell-based, Plasmodium knowlesi.
Test [2] concerns the target T1, Duffy blood group antigen (Homo sapiens, UniProt Q16570).
T1 sequence (Q16570 1-336): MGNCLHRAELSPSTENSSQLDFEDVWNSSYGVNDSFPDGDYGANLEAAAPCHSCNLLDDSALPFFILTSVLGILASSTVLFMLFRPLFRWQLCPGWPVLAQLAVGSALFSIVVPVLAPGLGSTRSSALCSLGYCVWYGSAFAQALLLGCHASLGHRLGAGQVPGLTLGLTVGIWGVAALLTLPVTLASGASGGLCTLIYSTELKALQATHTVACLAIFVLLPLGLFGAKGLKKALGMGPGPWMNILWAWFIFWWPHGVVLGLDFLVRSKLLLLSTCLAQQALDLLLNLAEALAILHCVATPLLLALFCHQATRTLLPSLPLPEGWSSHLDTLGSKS
The following applies: previously shown (Horuk et al. 1993; Chitnis et al. 1994); cited from earlier work.

The test system of a further test is P. vivax Region II. The following applies: previously shown (Horuk et al. 1993; Chitnis et al. 1994); cited from earlier work.
Sequence of P. vivax Region II (P22290 211-521): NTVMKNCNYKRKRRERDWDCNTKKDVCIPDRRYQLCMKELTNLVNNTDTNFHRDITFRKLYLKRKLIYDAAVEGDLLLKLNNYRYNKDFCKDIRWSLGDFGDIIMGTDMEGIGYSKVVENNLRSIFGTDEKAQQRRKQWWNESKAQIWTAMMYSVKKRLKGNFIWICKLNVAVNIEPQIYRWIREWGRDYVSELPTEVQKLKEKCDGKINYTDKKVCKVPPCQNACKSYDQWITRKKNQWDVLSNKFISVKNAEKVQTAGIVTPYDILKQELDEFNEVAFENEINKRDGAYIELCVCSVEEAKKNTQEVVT
The next test deals with P. knowlesi β Region II. Briefly: MGSA inhibition of N-glycanase-treated rhesus erythrocyte binding, P. knowlesi β Region II. It is filed as cell-based, Plasmodium knowlesi. The following applies: rhesus erythrocytes, read-out: 50% Inhibition Conc.
Test [3] deals with Region II of the P. vivax Duffy antigen binding protein. Briefly: MGSA inhibition of N-glycanase-treated rhesus erythrocyte binding, P. vivax Region II. The test is classed as cell-based, Plasmodium vivax. The protocol:
Blood was collected in 10% citrate/phosphate/dextrose (CPD) (Baxter, Deerfield, Ill.) and stored at 4° C. for up to four weeks. Standard blood banking methods using two antisera (anti-Fya and anti-Fyb) were used to determine the Duffy phenotypes. Duffy positive erythrocytes used in the binding assays had the Fy(a+b+) phenotype. Erythrocytes were washed three times in RPMI 1640 (GIBCO BRL) and resuspended to a hematocrit of 10% in RPMI 1640 for use in the erythrocyte binding assays. Washed human and rhesus erythrocytes were treated with neuraminidase as described earlier (Comus et al. 1985). Human and rhesus erythrocytes were deglycosylated with the N-glycanase, peptide-N-glycosidase F from Flavobacterium meningosepticum (Oxford Glycosystems). Washed erythrocytes (100 μL) were incubated with mixing for 1 h at 37° C. in 500 μL of PBS containing 10 units of N-glycanase and reaction buffer supplied by the manufacturer. The erythrocytes were washed extensively in PBS to remove the enzyme and stop the deglycosylation.
To study the efficacy of the chemokine MGSA in inhibiting binding, erythrocytes were preincubated in media containing different concentrations of MGSA (0 to 1000 nM) for 1 h at room temperature before they were used in erythrocyte binding assays as described earlier (Su et al. 1995). […]

Test [4] concerns the target T2, Region II of P. falciparum EBA-175 (Plasmodium falciparum, UniProt P19214).
T2 construct: expressed in transfected cells; host or cells: Cos7 cells (ATCC CRL 1651)
As to the kind of experiment: cell-based.

Test [5] has as its target rhesus Duffy blood group antigen on normal rhesus erythrocytes (rhesus monkey) (UniProt Q95LF2).
In test [6] the target is Region II of the P. knowlesi β protein expressed on the Cos7 cell surface (Plasmodium knowlesi; Herpes simplex virus) (UniProt P50493).
Test [7] has as its target deglycosylated rhesus Duffy blood group antigen on N-glycanase-treated rhesus erythrocytes (rhesus monkey) (UniProt Q95LF2).
For test [8], the system named is Region II of the P. knowlesi Duffy antigen binding protein (α). The following applies: read-out: concentration for 50% inhibition of erythrocyte binding, human erythrocytes.
Text: To study the ability of peptides from the Duffy antigen to inhibit erythrocyte binding, a binding assay using the transfected Cos cells was employed, based on a method previously described (Chitnis et al. 1994). This method measures interaction between the malarial Duffy antigen binding ligand expressed by the Cos cells and Duffy protein on erythrocytes. The ability of an analyte to interfere with the cellular binding can be quantitated by comparing the number of Cos cells surrounded by rosettes of erythrocytes in the control versus the number of rosettes formed in the presence of the analyte.
Transfected Cos cells were preincubated for 1 h in a 5% CO2 incubator at 37° C. in 0.9 mL of complete Dulbecco's modified Eagle's medium (cDMEM) containing a series of concentrations (0 to 100 μM) of the peptides. One hundred microliters of human or rhesus erythrocytes at a hematocrit of 10% were added to wells containing the peptides and allowed to bind over 2 h at 37° C. in a 5% CO2 incubator. Non-adherenterythrocytes were removed by washing the Cos7 cells then with PBS. The numbers of rosettes were scored in 20 fields of view at a magnification of 40× using an inverted microscope. Inhibition curves were drawn for three independent experiments and used to determine concentrations of the peptides required to achieve 50% inhibition. […]
For test [9], the target named is T3, Region II of the P. knowlesi Duffy antigen binding protein (alpha) expressed on the Cos7 cell surface (Plasmodium knowlesi; Herpes simplex …, UniProt P22545).
T3 sequence: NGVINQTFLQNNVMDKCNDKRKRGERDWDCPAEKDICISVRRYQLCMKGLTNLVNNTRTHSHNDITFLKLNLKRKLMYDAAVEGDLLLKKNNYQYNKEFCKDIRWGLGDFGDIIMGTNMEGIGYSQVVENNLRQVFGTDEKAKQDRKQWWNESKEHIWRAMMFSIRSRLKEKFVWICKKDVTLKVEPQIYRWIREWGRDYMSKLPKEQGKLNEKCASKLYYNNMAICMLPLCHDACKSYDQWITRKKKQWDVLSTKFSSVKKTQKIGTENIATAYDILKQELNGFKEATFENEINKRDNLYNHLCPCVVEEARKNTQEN

In test [10] the target is Region II of the P. vivax Duffy antigen-binding protein (DABP) expressed on the Cos7 cell surface (Plasmodium vivax; Herpes simplex virus, UniProt P22290).
For test [11], the system named is Rubinstein anti-Fy6 antibody. Briefly: Binding of the Rubinstein anti-Fy6 antibody to Duffy peptides (ELISA). Also on record: species or system murine.
For test [12], the target named is T3, Region II of the P. knowlesi Duffy …. This is another data set of the same source.
Test [13] deals with Region II of the P. knowlesi β protein expressed on the Cos7 cell surface (Plasmodium knowlesi; Herpes simplex …, UniProt P50493).

Sequence of Region II of the P. vivax Duffy antigen binding protein (P22290 211-521): as the sequence (P22290 211-521) above

Turning to “melanoma growth stimulating activity [MGSA]”, the “inhibition of binding of rhesus erythrocytes to Cos cells expressing Region II of P. knowlesi α” value in test [1] (in words) was “inhibit”. Further, the IC50 was 5 nM in [1] (rhesus erythrocytes, treatment none, P. knowlesi α, read-out: 50% Inhibition Conc.); over 1000 nM on P. knowlesi β Region II; 5 nM and 6 nM in test [3] (rhesus erythrocytes, N-glycanase treated, P. vivax DABP, separate experiments, read-out: 50% Inhibition Conc.). For the same molecule, in test [2], the “binding to the Duffy blood group antigen” value is given as “binds”. Further, the “inhibition of binding of P. vivax Region II to Duffy-positive human erythrocytes” value in the test on P. vivax Region II is “inhibit”. Besides, the “inhibition of binding of N-glycanase-treated rhesus erythrocytes to P. vivax Region II” value in [3] (in words, 50% inhibition at nanomolar concentrations) is reported as “inhibits”.

Turning to “AELSPSTQNSSQLNSDLWNFSYDGNDSFPDVDYD [RHPEP34]”, in [4], the IC50 was over 100000 nM.

Regarding “melanoma growth stimulating activity (MGSA) (from UniProt P09341) (ligand)”, the IC50 in test [5] was 5 nM; in test [6] it was over 1000 nM; in test [7], 5 nM and 6 nM.

As for “AELSPSTENSSQLDFEDVWNSSYGVNDSFPDGDYD [HPEP35]”, the IC50 in test [8] was 4900 ± 2300 nM; in test [4], over 100000 nM.

Consider AELSPSTENSSQLDFEDVWNSSYGVNDSFPDGDYD [HPEP35], for which the IC50 in test [9] stood at 4900 nM; in [10], 2900 nM.

B1: MASSGYVLQAELSPSTENSSQLDFEDVWNSSYGVNDSFPDGDYDANLEAAAPCHSCNLLDDSALPF (peptide)
chain: MASSGYVLQAELSPSTENSSQLDFEDVWNSSYGVNDSFPDGDYDANLEAAAPCHSCNLLDDSALPF
notes: N-terminal peptide of gp-Fyα containing the HPEP35 domain
For B1, the “binding in an ELISA assay (Rubinstein antibody)” value in [11] is on record as “bind”.

As for AELSPSTQNSSQLNSDLWNFSYDGNDSFPDVDYD [RHPEP34], the IC50 in test [12] is 5500 nM; in [10], 2100 nM; in test [13], over 100000 nM.
